Data on 17 sequences can be found in the DeepSol protein solubility set.

The series in a line: soluble on expression in E. coli; label from the status in PepcDB or PDB records.
With “MSLKYVDEFRNGDYAKTLVRLIQKLTKKKINIMEICGSHTMAIFRYGIKDILPSNIRLISGPGCPVCVTSQGYIDTALELSLSREVIIATFGDMIRVPGTKTSLMKRKAEGADIKIVYSPMDALTLAENNPLKKVVFLSVGFETTTPITAITILEAKKRGVKNIFFLTSNKMVPPVMRTLVEDKELNITGFLLPGNVSAIIGKKPYEFLSSEYNVSGVVTGFEPLDILKGLKVLIDIINNNASVIVNEYKRVVRDEGNVTALRYIKEVFEVTDSTWRGIGNIEKSGYKINTEYEQFDAVKQFNINYKECDSSSECRCGDILKGKITPIECSLFKKACTPDHPVGSCMVSYEGVCAAYYKFLNTEGHHHHHH”, the “soluble on expression in E. coli” value is listed as “not soluble”.

“MSLLFLAMAPKPKPWVQTEGPEKKKGRQAGREEDPFRSTAEALKAIPAEKRIIRVDPTCPLSSNPGTQVYEDYNCTLNQTNIENNNNKFYIIQLLQDSNRFFTCWNRWGRVGEVGQSKINHFTRLEDAKKDFEKKFREKTKNNWAERDHFVSHPGKYTLIEVQAEDEAQEAVVKVDRGPVRTVTKRVQPCSLDPATQKLITNIFSKEMFKNTMALMDLDVKKMPLGKLSKQQIARGFEALEALEEALKGPTDGGQSLEELSSHFYTVIPHNFGHSQPPPINSPELLQAKKDMLLVLADIELAQALQAVSEQEKTVEEVPHPLDRDYQLLKCQLQLLDSGAPEYKVIQTYLEQTGSNHRCPTLQHIWKVNQEGEEDRFQAHSKLGNRKLLWHGTNMAVVAAILTSGLRIMPHSGGRVGKGIYFASENSKSAGYVIGMKCGAHHVGYMFLGEVALGREHHINTDNPSLKSPPPGFDSVIARGHTEPDPTQDTELELDGQQVVVPQGQPVPCPEFSSSTFSQSEYLIYQESQCRLRYLLEVHL”: the “soluble on expression in E. coli” value is given as “soluble”.

With “MSLLIETTMTFLCPLCEHPLTLNQNTYACINRHQFDVAKEGYVNLMPVQHKRSKDPGDNKEMTQARRRFLHTGHYAPMREKVATLCQTYLTDRQQTLLDIGCGEGYYTDFFAKALRQQDSEAQIFGLDISKIAIRYAAKRYPECQFAVASSHRLPFANQSLDGVIRIYAPCKDTELERCIKIGGIVITVTPAARHLYQFKQGIYDQVRLHEEQPETLSGFELVEECKLHYPMALNGSEAADLLQMTPFAWRASEDFKHRVSQSDTFECEADFMLRVYRRKEGHHHHHH”, the “soluble on expression in E. coli” value is given as “soluble”.

On to “MSLLKADGMAKKQTLLVGERLVWDKLTLLGFLEKNHIPQKLYYNLSSQDKELSAEIQSNVTYYTLRDANNTLIQALIPISQDLQIHIYKKGEDYFLDFIPIVFTRKERTLLLSLQTSPYQDIVKATNDPLLANQLMNAYKKSVPFKRLVKNDKIAIVYTRDYRVGQAFGQPTIKMAMVSSRLHQYYLFSHSNGRYYDSKAQEVAGFLLETPVKYTRISSPFSYGRFHPVLKVKRPHYGVDYAAKHGSLIHSASDGRVGFIGVKAGYGKVVEIHLNELRLVYAHMSAFANGLKKGSFVKKGQIIGRVGSTGLSTGPHLHFGVYKNSRPINPLGYIRTAKSKLHGKQREVFLEKAQYSKQKLEELFKTHSFEKNSFYLLEGFEGHHHHHH”, for which the “soluble on expression in E. coli” value is recorded as “soluble”.

Consider “MSLLLRMMGWKALVPSANPLQSVICVAPHTSNYDFLLGKLYYWSIGRKAGFLMKKEWFFFPLGPIFRAMGGIPIDRSKRGSTVEQVREFFQRHAVFNVAITPEGTRDYSPQWKTGFYRIAVGAGVPIQLAVIDYSYKEMSVFELFTPTGNEEADIAYIRSRYRASQARHPRNFAESEIEGHHHHHH”, for which the “soluble on expression in E. coli” value is “soluble”.

Consider “MSLLSVKQSSINEDHNNWDFFGHFVLRSTGFPYEWMKELKMQQTFDLIFQNAKWEQVESKFNQELAIKREQLKAYFDSEDFRQAVFISNPDMYQHIDRYMKHFQSHSRPSKVKRIEKKLFTYLQRFCGKNESASFFGPLNYGQVEPNIDEYWDGSFIETKDLQKREAFLSYWAVKALAKAVAKENELAPYVPLQIPSWIVVRKEYVVLSSGKRINLPAWMMEIMHYIQETSSCLWELQNHFNHIEAGQLKASLEKLISKGLIHREWIIPSTVVHPLHRLLEQLRELPDSPAKNKWCQALDELASEVTKLANLPIVEKRRSFAHLEETFTKLTGEPSRRGKASLYADRFIYYEDAQGHIQEFRFGKPFIEDLQTKLAGSLNMSAAYGEEIWAYYQELGRNVYEDMQVEARNDEKRQLANSGIPFSSFINKLRQTYPDVPQLPKSSFSNKIEAIIREKGTEQRVVKLTSDQLNVFPSNRSFYSLPDLFLQAENIEALRNGDVQIILAKLHHHLLMHNWMTYFYQEKERLERDLVQLVQKLDHEDGTVLSGLEIMRRNKAYYDYPTTVIEYAEKPDSSKESIKLTDLIVVRNDDGHLELQEKNTSRPIELYVPLADQVHYLPFAMFSKPMLLHVPISSGKHTPRIVIDDVVYQRERWFFYTKQLVDLFHQLQGPLLLKKVEEWRQAEGIPEVVYIKGSDVRKPYWVDFKNYFSLELMQQILLENNEITIEEMLPDPHHLWLKSRKGSHSCELRMSVYKLGIKEVSEHAEGHHHHHH”, for which the “soluble on expression in E. coli” value is “soluble”.

Turning to “MSLMFERSPDDPLPLVYACSGCSNVAQLANDLALRLDRARLAEMSCIAGVGGDVPLLVRRARSGRPILALDGCPLHCVKGCLARHEVVPTLHLTLSEHGLKKRYGEDCEAQDAERLFVELERLLTPGGKRRCEEGHHHHHH”, the “soluble on expression in E. coli” value is recorded as “soluble”.

As for “MSLMLEPNPTQIKEERIYAEMGLTDEEFAMVEKILGRLPNYTETGLFSVMWSEHCSYKNSKPVLRKFPTTGERVLQGPGEGAGIVDIGDNQAVVFKMESHNHPSAIEPYQGAATGVGGIIRDVFSMGARPVALLNSLRFGELQSPRVKYLFEEVVAGIAGYGNCIGIPTVGGEVQFDPCYEGNPLVNAMCVGLINHEDIKKGQAHGAGNTVMYVGASTGRDGIHGATFASEELSESSEAKRPAVQVGDPFMEKLLIEACLELIQSDALVGIQDMGAAGLTSSSAEMASKAGMGIEMYLDDVPQRETGMTPYEMMLSESQERMLIVVKKGREQEIVDLFEKYGLAAVTMGKVTEDKMLRLFHKGEMVAEVPADALAEEAPIYHKPSKEAAYFAEFQQMKMETPKVENYKETLFALLQQPTIASKEWVYDQYDYQVRTSTVVTPGSDAAVVRVRGTEKGLAMTTDCNSRYIYLDPEVGGKIAVAEAARNIVCSGGEPLAITDCLNFGNPEKPEIFWQIEKSVDGMSEACRTLQTPVIGGNVSMYNERSGEAVYPTPTVGMVGLVHDLKHVTTQEFKQAGDLVYVIGETKAEFGGSELQKMLHGKIFGQSPSIDLDVELKRQKQVLAAIQAGLVQSAHDVAEGGLAVAISESAIGANGLGATVKLDGEATAALFAESQSRFVITVKRENKEAFEKAVEAIQVGEVTNTNEVTIHNEENEVLLTANVDEMRKAWKGAIPCLLK”, the “soluble on expression in E. coli” value is given as “not soluble”.

In the case of “MSLMRIVFDIGGSVLVPEKPDVDFITKLGYELTKISEDHEIAIVVGGGKVAREYIEVASKFNTNETFKDYLGIQITRANAMLLIAALKERAYPQVVSDFWEAWKAIQLKKIPVMGGTHPGHTTDAVSALLAEFLSADLLVVITNVDGVYTEDPKKNPNAKKIPKMKAKDLVDIVSREAGKAGVSTVIDPLAAKIIMRSGIKTYVIGKEDALKLFDVIKGNHNGTIIEPEGHHHHHH”, the “soluble on expression in E. coli” value is “soluble”.

Consider “MSLMTSVVPSFCHQDRRSNQRMKGLSPLAMAQVVTLGVLEPRAQGAVRWRRCWPERSTVGAIEAQRHWRPYLELSWAEKQQRDERQSQRASRVREEMFAKGQPLAPYNTTQFLMNDRDLEEPNLDVLHGPSHSGSGGENEAGDSDGQGRAHGEFQQRDFSEAYERYHTESLQGRSKQELVRDYLDLERRLSQAEQETRRLRQLQGCSSRQPCQQVEELAAEVERLRTENQRLRQENEMWNREGGYCDQEKPASEGTPWPKVEAPFQTHTGQLGHREAGDR”, for which the “soluble on expression in E. coli” value is “soluble”.

As for “MSLNADTLEDIKKAGVIKAATEMQFPPFDFLEGDKYVGVDRDLMDEVAKELGVKVEYIDLPWTSVLPGLEAGKFDLVIAPVTITKERLARYAFTLPISEGTAALMKRADDDSITKPEDIAGKTIGGGKGTSQLGQIKEYAAALPGKVEFKEYVDSNQSYADLAAGRVDASVNSYPNLAYAAAQRPETFAVVLPPFGKTTYFSWVSRLGEKDASLVEAVNAALLKLGEDGRMSAIHEKWFGKGVDLPKEGHHHHHH”, the “soluble on expression in E. coli” value was “soluble”.

Take “MSLNASEAVYKAILDSGVDFVTSVPCANLKTVLNYLNDNKDIQHIPVTREEEGIGVCAGAYLGGRKTALLMQNSGLGNSINAIGSLVKVYKIPILIIISHRGDLKEKISAQIPMGQWTKKLLETVEIPYFSPKTPDEAYKLIKDASELSINMEYPVAILLDALYWEHDKEGHHHHHH”: the “soluble on expression in E. coli” value is reported as “soluble”.

With “MSLNDSFNPNENNPAEPSMELVVNGSGINVRSDAGIEHRVVRKASNGDRYKVLAVKNGWYKVGNGEWIFYDPSWIKINYNVPKEEVQKPKEEVQKPKDDITGGWFEGHIRKLNSLGIMQGEGNGVFAPYRNVTRAEFAKLISNALKLPEGNKSFVDINEAHPSLHDGIKRCASAGIINGRGEGIFDPNSPITREEVSIMIDKALRYKGITGELVALPFTDKHLITYKESVQRLYSLKVVNGIGNNEFDPRGTATRGQAAAFIVKMLDSMQKEGHHHHHH”, the “soluble on expression in E. coli” value was “soluble”.

For “MSLNEWALETDAEFLVYNALRETGRLLISPDAITKQKARHVMRQVIARYPLGSKHDKLWLAAVEMLHYYAPEVLQQLGIDLDAAKRDLAARILPNRFECQGPAIIRSQDLSDAQAAQACDVLDKKEQDFHQVANTGLAPVADDYNTRVEVVVFANNSSYVNYSSFLFGNTTDNGGQYLEGNPADQNNQARFVAYRYANDADLSILNLEHEYTHYLDARFNQYGSFSDNLAHGHIVWWLEGFAEYMHYKQGYQAAVKLISQGKLSLSDVFATTYSNDTNRIYRWGYLAVRFMLEKHPQDVESLLALSRTGQFDQWAQSVKLLGERYNTEFSAWLDTLQRDNEGHHHHHH”, the “soluble on expression in E. coli” value is “not soluble”.

As to “MSLNGITKYVEKVKGLLFSSVQSQKRIEFSNNDEKVMLSNVPLIQQLPELDRGCEVTSLAMMLQYAGVSVDKMKLANEIKKVNFMEDGVRGNPNEGFVGNIYTFSESGYGVYHGPLFQLAKKYLPNKAVDLTGKSIEEIYKSVKAGHPVVMITNATYAPLDEDEFTTWETNSGDVSITYNEHCVVLVGYDKESVYIRDPLDDSLDVKVPREKFEQAWVQMGSQAISYVNKSKEGHHHHHH”, the “soluble on expression in E. coli” value was “soluble”.

With “MSLNHPSSTPVPPLDATPARALGEFIRAHRERLSPQAVGLPPGPRRRTPGLRREEVAQLCGVSPTWYTWIEQGRPVSASADALARIAVALQLSKAERAYLFELAAQRDPAEPDVAGGDLPPTLAATVAAIATPAYVMDRQWNALAWNTPAAALFSGWLDGEHDRNLLRFTFMSPAARTLIVDWETRARRMAAEFRADSIRHLTDAPTRALIDALTAGSDAFAQYWASQDVFEREGGLREFDHPADGRMVYQQITLKPAHREDLKLVVLVRDEGHHHHHH”, the “soluble on expression in E. coli” value is recorded as “soluble”.

Regarding “MSLNIAVMEKGAAQPGDRLLSDVSLPALVIHNQALEHNIRWMQQFVTDSGAELAPHGKTSMVPALFRRQLDAGAWGMTLATAIQTQTAYAHGVKRVLMANQLVGAPNMAVIASLLADPMFEFHCMVDHPDNVAALGEFFAAHGLRLNVMIEYGVPGGRCGCRSEAEVLALADAVQAQPALALSGIEGYEGVIHGDQAIAGIKAFAASLVSLAVNLQDKGAFALDRPIVTASGSAWYDLIAEAFDAQAVRDRFLSVLRPGSYVVHDHGIYKDAQCCVLDRRAELSEALRPALEVWAHVQSMPEPGFAVIAMGKRDVAYDAGLPNPLLRYTPGVSSAPGDDVSACKVTAVMDQHAFMTVAADCELKVGDIISFGTSHPCLTFDKWRSGCLVDDDLRVIEPFHTCFEGHHHHHH”, the “soluble on expression in E. coli” value is listed as “not soluble”.
